Test [1] deals with T1, human PCSK9 (human, UniProt Q8NBP7 31-692).
T1 construct: also called hPCSK9; huPCSK9
Nature of the test: Octet Red, 37° C., core. (In general: In BLI a coated tip is dipped into the sample, and binding shifts an interference pattern.)

For test [2], the target named is T2, cynomolgus PCSK9 (cynomolgus, UniProt A0A7N9D9N8 150-747).
T2 construct: also called cyno PCSK9
The test can be described thus: Octet Red, 37° C., core.

Test [3] addresses T1, human PCSK9. The test can be described thus: PCSK9:EGFA FRET 2, competition.
Test [4] addresses T1, human PCSK9. The test can be described thus: PCSK9:EGFA FRET 1, competition.
The target in test [5] is T1, human PCSK9. Nature of the test: PCSK9:LDLR FRET, competition.
For test [6], the target named is T3, rhesus serum albumin (rhesus, UniProt Q28522 17-600).
T3 construct: also called RhSA; Rh-SA
The test can be described thus: SPR, albumin immobilized, HBS-P pH 7.4. (In general: SPR reads the build-up and loss of mass on a sensor chip optically.)

Test [7] concerns the target T4, human serum albumin (human, UniProt P02768 25-609).
T4 construct: immobilized on chips or coated on plates elsewhere; also called HSA; HuSA
The test can be described thus: SPR, albumin immobilized, HBS-P pH 7.4.

Test [8] concerns the target T5, mouse serum albumin (mouse, UniProt P07724 25-608).
T5 construct: also called MSA; MuSA
The test can be described thus: SPR, albumin immobilized, HBS-P pH 7.4.

In test [9] the target is T3, rhesus serum albumin. The test can be described thus: SPR, albumin immobilized, acetate pH 5.5.
For test [10], the target named is T4, human serum albumin. Nature of the test: SPR, albumin immobilized, acetate pH 5.5.
The target of test [11] is T5, mouse serum albumin. The test can be described thus: SPR, albumin immobilized, acetate pH 5.5.
The target in test [12] is T4, human serum albumin. The test can be described thus: hFcRn:HSA competition AlphaScreen, pH 5.5. In general terms: Bead proximity is the source of the signal in Alpha formats.
For test [13], the target named is T5, mouse serum albumin. Nature of the test: SPR, albumin immobilized.
Test [14] deals with T6, domain III of HSA (human, UniProt P02768 405-609, limits assumed).
T6 construct: domain: III; also called HuSA domainIII
The test can be described thus: SPR on HSA domains.

The target of test [15] is T7, domain I of HSA (human, UniProt P02768 25-221, limits assumed).
T7 construct: domain: I; also called HSA domain I
The test can be described thus: SPR on HSA domains.

For test [16], the target named is T3, rhesus serum albumin. Nature of the test: SPR, albumin immobilized.
Test [17] deals with T8, cynomolgus serum albumin (cynomolgus, UniProt A2V9Z4 25-608).
T8 construct: also called cynoSA; CySA
The test can be described thus: SPR, albumin immobilized.

Test [18] deals with T9, rat serum albumin (rat, UniProt P02770 25-608).
T9 construct: also called Rat SA; RSA
Nature of the test: SPR, albumin immobilized.

Test [19] concerns the target T4, human serum albumin. Nature of the test: SPR, albumin immobilized.
For test [20], the target named is T5, mouse serum albumin. Nature of the test: SPR, albumin immobilized. This is another data set of the same source.
Test [21] addresses T3, rhesus serum albumin. Nature of the test: SPR, albumin immobilized, acetate pH 7.4.
In test [22] the target is T4, human serum albumin. Nature of the test: SPR, albumin immobilized, acetate pH 7.4.
Test [23] has as its target T5, mouse serum albumin. The test can be described thus: SPR, albumin immobilized, acetate pH 7.4.
Test [24] deals with T3, rhesus serum albumin. The test can be described thus: SPR, albumin immobilized. This is another data set of the same source.
In test [25] the target is T4, human serum albumin. The test can be described thus: SPR, albumin immobilized. The source holds these as a separate data set.
Test [26] has as its target T5, mouse serum albumin. Nature of the test: SPR, albumin immobilized. This is another data set of the same source.
Test [27] concerns the target T3, rhesus serum albumin. Nature of the test: direct binding ELISA, albumin coated.
Test [28] deals with T4, human serum albumin. Nature of the test: direct binding ELISA, albumin coated.
In test [29] the target is T5, mouse serum albumin. Nature of the test: direct binding ELISA, albumin coated.
Test [30] deals with T1, human PCSK9. Nature of the test: BLI (Octet), biotinylated PCSK9 on tips, tandem in complex with excess HSA.
Test [31] has as its target T1, human PCSK9. The test can be described thus: BLI (Octet), biotinylated PCSK9 on tips, no HSA.
In test [32] the target is T3, rhesus serum albumin. The test can be described thus: SPR, albumin immobilized, HBSP pH 7.4.
Test [33] addresses T4, human serum albumin. The test can be described thus: SPR, albumin immobilized, HBSP pH 7.4.
The target of test [34] is T5, mouse serum albumin. Nature of the test: SPR, albumin immobilized, HBSP pH 7.4.
The target of test [35] is T3, rhesus serum albumin. The test can be described thus: SPR, albumin immobilized, acetate pH 5.5. The source holds these as a separate data set.
Test [36] addresses T4, human serum albumin. The test can be described thus: SPR, albumin immobilized, acetate pH 5.5. The source holds these as a separate data set.
Test [37] addresses T5, mouse serum albumin. Nature of the test: SPR, albumin immobilized, acetate pH 5.5. The source holds these as a separate data set.
In test [38] the target is T3, rhesus serum albumin. Nature of the test: SPR, albumin immobilized. This is another data set of the same source.
Test [39] addresses T8, cynomolgus serum albumin. Nature of the test: SPR, albumin immobilized. This is another data set of the same source.
Test [40] has as its target T9, rat serum albumin. The test can be described thus: SPR, albumin immobilized. This is another data set of the same source.
The target of test [41] is T4, human serum albumin. The test can be described thus: SPR, albumin immobilized. This is another data set of the same source.
In test [42] the target is T5, mouse serum albumin. Nature of the test: SPR, albumin immobilized. The source holds these as a separate data set.
In test [43] the target is T4, human serum albumin. The test can be described thus: direct binding ELISA on coated HSA, mono-Adnectin (column HSA EC50 (nM)).

Where two headings read alike, the source gives them in different places.

B1: PCSK9 Adnectin 2382_D09 (designed binder)
chain: MGVSDVPRDLEVVAATPTSLLISWDAPAEGYGYYRITYGETGGNSPVQEFTVPVSKGTATISGLKPGVDYTITVYAVEFDFPGAGYYHRPISINYRT
As to B1, the Kd (in general, the concentration at which binding is half-saturated) was 0.14 nM in test [1] and 39 nM in test [2]. The IC50 (commonly the concentration needed to halve the response being measured) in [3] stood at 10.6 nM; in [4], 19.7 nM; in [5], 2.3 nM.

B2: PKE2 Adnectin 2270_C01 (designed binder)
chain: MASTSGVPRDLEVVAATPTSLLISWDAPAVTVRYYRITYGWQVQMYSDWGPLYIYKEFTVPGSKSTATISGLKPGVDYTITVYAVTGSGESPASSKPISINYRTEGDKPSQHHHHHH
notes: 10Fn3 domain with modified CD loop; the entry includes the His6 tail
Regarding B2, the Kd in test [6] is 6.98 nM; in test [7], 5.58 nM; in test [8], 67.7 nM; in test [9], 17.6 nM; in test [10] it was 8.82 nM; in test [11], approximately 192 nM. Also, the dissociation rate constant (koff) (usually the first-order rate constant of dissociation) in test [6] was found to be 0.000577 s⁻¹; in test [7], 0.000368 s⁻¹; in test [8], 0.00909 s⁻¹; in test [9], 0.00105 s⁻¹; in test [10] it was 0.000898 s⁻¹; in test [11] it was 0.0146 s⁻¹. Moreover, the kon (commonly the rate constant with which the complex forms) in test [6] was found to be 82700 M⁻¹ s⁻¹; in test [7], 65900 M⁻¹ s⁻¹; in [8] it was 134000 M⁻¹ s⁻¹; in [9] it was 59600 M⁻¹ s⁻¹; in [10], 102000 M⁻¹ s⁻¹; in test [11], 75900 M⁻¹ s⁻¹. Further, in test [12], the IC50 is 37 nM. In addition, in test [13], the “fold weaker affinity than for human or rhesus albumin” value was approximately 10 fold. The binding result in [14] and in [15] was “no binding” in each case.

B3: PCSK9-PKE2 tandem Adnectin w/o his tag 5190_E01 (designed binder)
chain: MGVSDVPRDLEVVAATPTSLLISWDAPAEGYGYYRITYGETGGNSPVQEFTVPVSKGTATISGLKPGVDYTITVYAVEFDFPGAGYYHRPISINYRTEPSTPPTPSPSTPPTPSPSGVSDVPRDLEVVAATPTSLLISWDAPAVTVRYYRITYGREVQKYSDLGPLYIYQEFTVPGSKSTATISGLKPGVDYTITVYAVTGSGESPASSKPISINYRTP
notes: also called ATI-1676; 4472_C06 tandem Adnectin without a 6X histidine tail
As for B3, the Kd in test [16] is 53.8 nM; in test [17] it was 50.5 nM; in [18], 200 nM; in test [19], 57.2 nM; in [20] it was 43.3 nM. The koff amounted to 0.000351 s⁻¹ in test [16]; 0.000326 s⁻¹ in test [17]; 0.00147 s⁻¹ in [18]; 0.000272 s⁻¹ in test [19]; 0.000723 s⁻¹ in [20]. Also, the kon in [16] worked out at 6520 M⁻¹ s⁻¹; in [17] it was 6440 M⁻¹ s⁻¹; in test [18], 7350 M⁻¹ s⁻¹; in [19] it was 4790 M⁻¹ s⁻¹; in test [20] it was 16700 M⁻¹ s⁻¹.

B4: PCSK9-PKE2 tandem 4472_F08 (designed binder)
PCSK9 domain: MGVSDVPRDLEVVAATPTSLLISWDAPAEGYGYYRITYGETGGNSPVQEFTVPVSKGTATISGLKPGVDYTITVYAVEFDFPGAGYYHRPISINYRTE
PKE2 domain: GVSDVPRDLEVVAATPTSLLISWDAPAVTVRYYRITYGREVQKYSDLGPLYIYQEFTVPGSKSTATISGLKPGVDYTITVYAVTGSGESPASSKPISINYRTEHHHHHH
modifications: The real molecule is ONE polypeptide: PCSK9 domain, undisclosed linker F, PKE2 domain. It is given here as two chains because the linker letters are unknown.
notes: not shown: The inter-domain linker
With B4, the Kd turned out to be 75.4 nM in [21]; 83.9 nM in test [22]; 35 nM in test [23]; 68.7 nM in [24]; 67.1 nM in test [25]; 25.5 nM in test [26]. Moreover, the equilibrium dissociation constant (Kd) was found to be 0.902 nM in [30]; 0.404 nM in [31]; 71.7 nM in test [32]; 83.8 nM in [33]; 26.3 nM in test [34]; 110 nM in [35]. Further, the dissociation constant Kd in [36] is 43.9 nM; in test [37], 137 nM. The off-rate constant (koff) in [21] is 0.000405 s⁻¹; in [22], 0.000387 s⁻¹; in [23] it was 0.000407 s⁻¹; in test [24], 0.000367 s⁻¹; in test [25], 0.000324 s⁻¹; in test [26], 0.000344 s⁻¹. Moreover, the koff in test [30] came to 0.000148 s⁻¹; in [31] it was 0.000118 s⁻¹; in [32], 0.000346 s⁻¹; in test [33] it was 0.000301 s⁻¹; in [34] it was 0.000359 s⁻¹; in test [35] it was 0.000818 s⁻¹. For the same molecule, the values for the koff in test [36] and in test [37] were 0.000489 s⁻¹ and 0.0015 s⁻¹, respectively. Moreover, the kon was 5380 M⁻¹ s⁻¹ in test [21]; 4610 M⁻¹ s⁻¹ in [22]; 11600 M⁻¹ s⁻¹ in test [23]; 5340 M⁻¹ s⁻¹ in test [24]; 4820 M⁻¹ s⁻¹ in [25]; 13500 M⁻¹ s⁻¹ in test [26]. The on-rate constant (kon) in test [30] stood at 161000 M⁻¹ s⁻¹; in test [31] it was 289000 M⁻¹ s⁻¹; in [32], 4820 M⁻¹ s⁻¹; in [33], 3590 M⁻¹ s⁻¹; in [34], 13700 M⁻¹ s⁻¹; in test [35], 7400 M⁻¹ s⁻¹. Also, the values for the kon in [36] and in [37] were 11100 M⁻¹ s⁻¹ and 11000 M⁻¹ s⁻¹, respectively. For the same molecule, the concentration giving a half-maximal response (EC50) (usually the midpoint of the concentration-response curve) amounted to 35.2 nM in test [27], 55.4 nM in [28] and 7.3 nM in test [29]. Also, the IC50 worked out at 5.88 nM in [3], 7.88 nM in test [4] and 2.5 nM in test [5].

B5: PKE2 Adnectin 2630_D02 (designed binder)
chain: MGVSDVPRDLEVVAATPTSLLISWDAPAVTVRYYRITYGREVQKYSDWGPLYIYNEFTVPGSKSTATISGLKPGVDYTITVYAVTGSGESPASSKPISINYRTEIDKPSQHHHHHH
notes: as for B2
With B5, the dissociation constant Kd in test [38] was found to be 1.8 nM; in [39] it was 1.6 nM; in test [40], 200 nM; in test [41], 1 nM; in test [42] it was 13.6 nM. The koff was found to be 0.000362 s⁻¹ in [38]; 0.000335 s⁻¹ in test [39]; 0.0299 s⁻¹ in [40]; 0.000162 s⁻¹ in test [41]; 0.0092 s⁻¹ in [42]. The on-rate (kon) was determined as 207000 M⁻¹ s⁻¹ in [38]; 208000 M⁻¹ s⁻¹ in test [39]; 150000 M⁻¹ s⁻¹ in test [40]; 167000 M⁻¹ s⁻¹ in test [41]; 678000 M⁻¹ s⁻¹ in test [42]. The molecule also displayed an EC50 in test [43] of 9 nM. This molecule registered an IC50 in [12] of 28.7 nM. For the same molecule, the binding result in test [14] and in test [15] was “no binding” throughout.
